# Results from patent publication US20130123462A1 (INDIANA UNIVERSITY RESEARCH AND TECHNOLOGY, published 2013).
# Numbering of substitutions follows the chain as printed. Where two headings read alike, the source gives them in different places. Bridges are numbered along the chain shown (N, C = ends). Where no end group is shown, it is not given here. [ ]: non-standard residue; d: D form. PhLac = O=C(O)[C@@H](O)Cc1ccccc1
# B1: [E9, E16K20(lactam), D28]G(4~29) (peptide)
# peptide: GTFTSEYSKYLDERRAKDFVQWLMDT-NH2
# modifications: lactam 13-17; N-terminus assumed
# SMILES: CSCC[C@H](NC(=O)[C@H](CC(C)C)NC(=O)[C@H](Cc1c[nH]c2ccccc12)NC(=O)[C@H](CCC(N)=O)NC(=O)[C@@H](NC(=O)[C@H](Cc1ccccc1)NC(=O)[C@H](CC(=O)O)NC(=O)[C@@H]1CCCCNC(=O)CC[C@H](NC(=O)[C@H](CC(=O)O)NC(=O)[C@H](CC(C)C)NC(=O)[C@H](Cc2ccc(O)cc2)NC(=O)[C@H](CCCCN)NC(=O)[C@H](CO)NC(=O)[C@H](Cc2ccc(O)cc2)NC(=O)[C@H](CCC(=O)O)NC(=O)[C@H](CO)NC(=O)[C@@H](NC(=O)[C@H](Cc2ccccc2)NC(=O)[C@@H](NC(=O)CN)[C@@H](C)O)[C@@H](C)O)C(=O)N[C@@H](CCCNC(=N)N)C(=O)N[C@@H](CCCNC(=N)N)C(=O)N[C@@H](C)C(=O)N1)C(C)C)C(=O)N[C@@H](CC(=O)O)C(=O)N[C@H](C(N)=O)[C@@H](C)O
# B2: [A2E3, E16K20(Lactam), D28]G(2~29) (peptide)
# peptide: AEGTFTSEYSKYLDERRAKDFVQWLMDT-NH2
# modifications: lactam 15-19
# B3: [A2E3, E16K20(Lactam), D28]G(1~29) (peptide)
# peptide: HAEGTFTSEYSKYLDERRAKDFVQWLMDT-NH2
# modifications: lactam 16-20; N-terminus assumed
# SMILES: CSCC[C@H](NC(=O)[C@H](CC(C)C)NC(=O)[C@H](Cc1c[nH]c2ccccc12)NC(=O)[C@H](CCC(N)=O)NC(=O)[C@@H](NC(=O)[C@H](Cc1ccccc1)NC(=O)[C@H](CC(=O)O)NC(=O)[C@@H]1CCCCNC(=O)CC[C@H](NC(=O)[C@H](CC(=O)O)NC(=O)[C@H](CC(C)C)NC(=O)[C@H](Cc2ccc(O)cc2)NC(=O)[C@H](CCCCN)NC(=O)[C@H](CO)NC(=O)[C@H](Cc2ccc(O)cc2)NC(=O)[C@H](CCC(=O)O)NC(=O)[C@H](CO)NC(=O)[C@@H](NC(=O)[C@H](Cc2ccccc2)NC(=O)[C@@H](NC(=O)CNC(=O)[C@H](CCC(=O)O)NC(=O)[C@H](C)NC(=O)[C@@H](N)Cc2c[nH]cn2)[C@@H](C)O)[C@@H](C)O)C(=O)N[C@@H](CCCNC(=N)N)C(=O)N[C@@H](CCCNC(=N)N)C(=O)N[C@@H](C)C(=O)N1)C(C)C)C(=O)N[C@@H](CC(=O)O)C(=O)N[C@H](C(N)=O)[C@@H](C)O
# B4: ANK2 (Bayer peptide) (peptide)
# peptide: HSQGTFTSDYARYLDARRAREFIKWLVRGRG
# B5: D9, K12E16(Lactam) Cex glucagon(6-39) (Table 13, peptide 4) (peptide)
# peptide: FTSDYSKYLDERRAQDFVQWLMNTGPSSGAPPPS
# modifications: lactam 7-11; not fully specified
# B6: PLA 6, D9, D28 glucagon D9(6-29) analog (Table 15, peptide 7) (peptide)
# peptide: FTSDYSKYLDSRRAQDFVQWLMDT
# modifications: first residue is phenyl lactic acid (PLA)
# B7: [PLA6, D9, K12E16(Lactam), D28]G(6-29) (peptide)
# peptide: [PhLac]TSDYSKYLDERRAQDFVQWLMDT-NH2
# modifications: lactam 7-11; N-terminus assumed
# SMILES: CSCC[C@H](NC(=O)[C@H](CC(C)C)NC(=O)[C@H](Cc1c[nH]c2ccccc12)NC(=O)[C@H](CCC(N)=O)NC(=O)[C@@H](NC(=O)[C@H](Cc1ccccc1)NC(=O)[C@H](CC(=O)O)NC(=O)[C@H](CCC(N)=O)NC(=O)[C@H](C)NC(=O)[C@H](CCCNC(=N)N)NC(=O)[C@H](CCCNC(=N)N)NC(=O)[C@@H]1CCC(=O)NCCCC[C@H](NC(=O)[C@H](CO)NC(=O)[C@H](Cc2ccc(O)cc2)NC(=O)[C@H](CC(=O)O)NC(=O)[C@H](CO)NC(=O)[C@@H](NC(=O)[C@@H](O)Cc2ccccc2)[C@@H](C)O)C(=O)N[C@@H](Cc2ccc(O)cc2)C(=O)N[C@@H](CC(C)C)C(=O)N[C@@H](CC(=O)O)C(=O)N1)C(C)C)C(=O)N[C@@H](CC(=O)O)C(=O)N[C@H](C(N)=O)[C@@H](C)O
# B8: [PLA6, D9, E16K20(lactam), D28]G(6-29) (peptide)
# peptide: [PhLac]TSDYSKYLDERRAKDFVQWLMDT-NH2
# modifications: lactam 11-15
# B9: E9, K12, E16 Cex glucagon(6-39) (Table 13, peptide 1) (peptide)
# peptide: B5 peptide with D4E
# B10: E9, K12E16(lactam) Cex glucagon(6-39) (Table 13, peptide 2) (peptide)
# peptide: B5 peptide with D4E
# modifications: lactam 7-11
# B11: E9, E16K20(lactam) Cex glucagon(6-39) (Table 13, peptide 3) (peptide)
# peptide: B5 peptide with D4E, Q15K
# modifications: lactam 11-15
# B12: [PLA6, E9, K12E16(Lactam)] Cex glucagon(6-39) (Table 13, peptide 5) (peptide)
# peptide: [PhLac]TSEYSKYLDERRAQDFVQWLMNTGPSSGAPPPS
# modifications: lactam 7-11; not fully specified
# B13: [PLA6, D9, E16, K20E24(Lactam), D28]G(6-29) (peptide)
# peptide: [PhLac]TSDYSKYLDERRAKDFVEWLMDT-NH2
# modifications: lactam 15-19; N-terminus assumed
# SMILES: CSCC[C@H](NC(=O)[C@H](CC(C)C)NC(=O)[C@H](Cc1c[nH]c2ccccc12)NC(=O)[C@@H]1CCC(=O)NCCCC[C@H](NC(=O)[C@H](C)NC(=O)[C@H](CCCNC(=N)N)NC(=O)[C@H](CCCNC(=N)N)NC(=O)[C@H](CCC(=O)O)NC(=O)[C@H](CC(=O)O)NC(=O)[C@H](CC(C)C)NC(=O)[C@H](Cc2ccc(O)cc2)NC(=O)[C@H](CCCCN)NC(=O)[C@H](CO)NC(=O)[C@H](Cc2ccc(O)cc2)NC(=O)[C@H](CC(=O)O)NC(=O)[C@H](CO)NC(=O)[C@@H](NC(=O)[C@@H](O)Cc2ccccc2)[C@@H](C)O)C(=O)N[C@@H](CC(=O)O)C(=O)N[C@@H](Cc2ccccc2)C(=O)N[C@@H](C(C)C)C(=O)N1)C(=O)N[C@@H](CC(=O)O)C(=O)N[C@H](C(N)=O)[C@@H](C)O
# B14: [PLA6, D9, E16, E24K28(lactam)]G(6~29) (peptide)
# peptide: [PhLac]TSDYSKYLDERRAQDFVEWLMKT-NH2
# modifications: lactam 19-23; N-terminus assumed
# SMILES: CSCC[C@@H]1NC(=O)[C@H](CC(C)C)NC(=O)[C@H](Cc2c[nH]c3ccccc23)NC(=O)[C@@H](NC(=O)[C@@H](NC(=O)[C@H](Cc2ccccc2)NC(=O)[C@H](CC(=O)O)NC(=O)[C@H](CCC(N)=O)NC(=O)[C@H](C)NC(=O)[C@H](CCCNC(=N)N)NC(=O)[C@H](CCCNC(=N)N)NC(=O)[C@H](CCC(=O)O)NC(=O)[C@H](CC(=O)O)NC(=O)[C@H](CC(C)C)NC(=O)[C@H](Cc2ccc(O)cc2)NC(=O)[C@H](CCCCN)NC(=O)[C@H](CO)NC(=O)[C@H](Cc2ccc(O)cc2)NC(=O)[C@H](CC(=O)O)NC(=O)[C@H](CO)NC(=O)[C@@H](NC(=O)[C@@H](O)Cc2ccccc2)[C@@H](C)O)C(C)C)CCC(=O)NCCCC[C@@H](C(=O)N[C@H](C(N)=O)[C@@H](C)O)NC1=O
# How the values were obtained:
# Assay in all cases: cell-based or functional assay
# glucagon receptor [1] = target: T1, glucagon receptor (UniProt P47871 26-477, limits assumed)
# T1 sequence (P47871 26-477 limits assumed): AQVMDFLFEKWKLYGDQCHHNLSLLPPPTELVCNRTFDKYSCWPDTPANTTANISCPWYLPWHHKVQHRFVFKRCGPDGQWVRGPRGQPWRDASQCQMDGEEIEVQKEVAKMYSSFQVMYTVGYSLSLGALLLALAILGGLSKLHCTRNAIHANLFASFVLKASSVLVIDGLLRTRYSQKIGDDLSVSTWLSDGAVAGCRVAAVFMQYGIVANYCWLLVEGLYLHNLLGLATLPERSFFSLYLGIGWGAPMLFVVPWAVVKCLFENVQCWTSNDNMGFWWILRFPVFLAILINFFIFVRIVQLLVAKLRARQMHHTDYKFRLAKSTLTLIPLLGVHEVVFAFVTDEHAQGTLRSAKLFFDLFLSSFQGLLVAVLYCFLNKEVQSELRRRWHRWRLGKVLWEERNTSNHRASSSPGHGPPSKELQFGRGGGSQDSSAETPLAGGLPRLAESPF
# GLP-1 receptor [2] = target: T2, GLP-1 receptor (UniProt P43220 24-463, limits assumed)
# glucagon receptor [3] = target: T1, glucagon receptor; remark: listed apart in the source
# GLP-1 receptor [4] = target: T2, GLP-1 receptor; remark: listed apart in the source
# Target sequence in this assay (P43220 24-463 limits assumed): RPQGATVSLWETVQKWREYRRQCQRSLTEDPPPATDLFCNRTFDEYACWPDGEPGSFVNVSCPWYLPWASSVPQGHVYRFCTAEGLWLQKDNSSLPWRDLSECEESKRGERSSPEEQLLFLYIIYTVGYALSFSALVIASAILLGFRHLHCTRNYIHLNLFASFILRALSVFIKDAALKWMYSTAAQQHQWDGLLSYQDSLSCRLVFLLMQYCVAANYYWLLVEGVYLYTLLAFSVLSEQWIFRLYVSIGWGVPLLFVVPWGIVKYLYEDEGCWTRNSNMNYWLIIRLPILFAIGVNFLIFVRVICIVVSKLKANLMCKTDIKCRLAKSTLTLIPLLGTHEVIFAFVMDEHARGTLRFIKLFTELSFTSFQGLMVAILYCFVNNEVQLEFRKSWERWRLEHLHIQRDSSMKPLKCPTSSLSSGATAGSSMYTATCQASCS
# GLP-1 receptor [5] = target: T2, GLP-1 receptor; remark: listed apart in the source
# glucagon receptor [6] = target: T1, glucagon receptor; remark: listed apart in the source
Binder,Glucagon IC50 (glucagon receptor [1]) [nM],GLP-1 EC50 (GLP-1 receptor [2]) [nM],Glu IC50 (glucagon receptor [3]) [nM],also measured
B1,10 to 30,151,–,–
B2,63,–,–,–
B3,–,0.2,–,Glucagon IC50 (PA = partial antagonist) (glucagon receptor [1]): 130 nM
B4,–,0.28,–,–
B5,–,–,828,GLP-1 EC50 (GLP-1 receptor [4]): 119 nM; GLP-1 EC50 (column without a head in this part of Table 15) (GLP-1 receptor [5]): 18 nM
B6,–,–,–,GLP-1 EC50 (GLP-1 receptor [5]): ~700 nM
B7,63,177,–,Glucagon IC50 (glucagon receptor [6]): 13 nM; GLP-1 EC50 (GLP-1 receptor [5]): 21 nM
B8,10 to 30,–,–,Glucagon IC50 (glucagon receptor [6]): 6 nM; GLP-1 EC50 (GLP-1 receptor [5]): 4 nM
B9,–,–,762,–
B10,–,–,2010,GLP-1 EC50 (GLP-1 receptor [4]): 63 nM
B11,–,–,42,GLP-1 EC50 (GLP-1 receptor [4]): 36 nM
B12,–,–,72,GLP-1 EC50 (GLP-1 receptor [4]): 6 nM
B13,74,239,–,–
B14,22,289,–,–
